{
  "source": "patent US20240392276",
  "proteins": {"B1": {"name": "His-CBD-TEV protease (protein)", "chain": "HHHHHHGSGSSGLTTNPGVSAWQVNTAYTAGQLVTYNGKTYKCLQPHTSLAGWEPSNVPALWQLQGSGSSGESLFKGPRDYNPISSSICHLTNESDGHTTSLYGIGFGPFIITNKHLFRRNNGTLVVQSLHGVFKVKDTTTLQQHLVDGRDMIIIRMPKDFPPFPQKLKFREPQREERICLVTTNFQTKSMSSMVSDTSCTFPSGDGIFWKHWIQTKDGQCGSPLVSTRDGFIVGIHSASNFTNTNNYFTSVPKNFMELLTNQEAQQWVSGWRLNADSVLWGGHKVFMSKPEEPFQPVKEATQLMN"}},
  "molecular_target": "eGFP displaying an MBP tag connected with a TEV cleavage site (MBP-TEVsite-eGFP)",
  "data": [
    {"protein": "B1", "values": [
      {"measurement": "digestion on Bis-tris protein gel (protease activity)", "value": "In the presence of His-CBD-TEV, MBP-TEVsite-eGFP is cleaved into the MBP tag (43 kDa) and eGFP (33 kDa)"}
    ]}
  ]
}
